This note sets out measurements from paper PMC8871863, “Initiator-Directed Transcription: Fission Yeast Nmtl Initiator Directs Preinitiation Complex Formation and Transcriptional Initiation” (Genes, 2022).

The target in this test is T1, TFIIB (fission yeast (S. pombe), UniProt O13749 1-340).
T1 construct: transcription initiation factor TFIIB of fission yeast, recombinant; also called recombinant fission yeast TFIIB
T1 sequence (looked up): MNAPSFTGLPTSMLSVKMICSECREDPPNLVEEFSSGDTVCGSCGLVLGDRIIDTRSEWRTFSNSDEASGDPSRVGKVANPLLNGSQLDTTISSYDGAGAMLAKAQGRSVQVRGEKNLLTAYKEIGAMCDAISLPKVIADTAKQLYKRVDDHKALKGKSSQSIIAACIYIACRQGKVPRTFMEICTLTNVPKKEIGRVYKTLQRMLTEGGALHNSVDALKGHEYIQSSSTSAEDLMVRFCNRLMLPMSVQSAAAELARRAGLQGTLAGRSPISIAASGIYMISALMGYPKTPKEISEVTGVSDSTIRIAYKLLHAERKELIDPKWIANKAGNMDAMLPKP
Put plainly: native gel or EMSA; purified factors incubated 5 min at 25 °C in 20 mM HEPES pH 7.9, 50 mM KCl, 5 mM MgCl2, 0.1 mM EDTA, 5% glycerol, 0.5% PEG 8000, 2 mM DTT, then 15 min at 30 °C with 32P-labelled nmt1 Inr DNA probe; 5% acrylamide gel at 4 °C; all complexes are formed on the DNA probe. The following applies: both partners purified.

B1: TBP (natural protein, fission yeast (S. pombe), UniProt P17871 1-231, looked up)
chain: MDFALPTTASQASAFMNNSSLTFPVLPNANNEATNETADSGDAEVSKNEGVSGIVPTLQNIVATVNLDCRLDLKTIALHARNAEYNPKRFAAVIMRIREPKSTALIFASGKMVVLGGKSEDDSKLASRKYARIIQKLGFNAKFTDFKIQNIVGSCDVKFPIRLEGLAYSHGTFSSYEPELFPGLIYRMVKPKVVLLIFVSGKIVLTGAKVREEIYQAFEAIYPVLSEFRKH
notes: also called fission yeast TBP
Regarding B1, the binding result is listed as “binds”.
